# Assay results reported in patent US20210347873A1 (SHANGHAI PHARMAEXPLORER, published 2021).
# T1: cynomolgus BLyS (full length, arginine to histidine at position 132) on CHO-K1 cells (cynomolgus, UniProt Q9Y275 1-285 (human entry))
# T1 construct: also called cyno BLyS; CHO-K1 cynoBLyS
# T1 chain: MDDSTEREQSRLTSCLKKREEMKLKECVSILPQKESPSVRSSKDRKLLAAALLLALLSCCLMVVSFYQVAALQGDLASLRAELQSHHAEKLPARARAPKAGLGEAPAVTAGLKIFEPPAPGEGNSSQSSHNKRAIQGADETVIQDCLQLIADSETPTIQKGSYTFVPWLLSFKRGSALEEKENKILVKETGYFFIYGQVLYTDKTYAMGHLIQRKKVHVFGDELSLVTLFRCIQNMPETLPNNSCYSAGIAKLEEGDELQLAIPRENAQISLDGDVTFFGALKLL
# Key:
# [1] = molecular target: T2, human BLyS (full length, arginine to histidine at position 132) on CHO-K1 cells (human, UniProt Q9Y275 1-285); test: flow cytometry, CHO-K1 hBLyS cells, antibody 0.534 nM
# T2 construct: also called hBLyS; CHO-K1 hBLyS
# T2 sequence (Q9Y275 whole entry R130H): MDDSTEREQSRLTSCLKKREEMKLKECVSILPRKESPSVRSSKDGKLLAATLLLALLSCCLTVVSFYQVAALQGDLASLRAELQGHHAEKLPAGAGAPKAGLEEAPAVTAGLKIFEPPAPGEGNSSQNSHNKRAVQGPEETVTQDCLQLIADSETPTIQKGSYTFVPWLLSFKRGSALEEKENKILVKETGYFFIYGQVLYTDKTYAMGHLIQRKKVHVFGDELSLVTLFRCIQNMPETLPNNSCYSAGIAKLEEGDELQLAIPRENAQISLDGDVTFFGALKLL
# Protocol: (§1) The medium was aspirated completely, and the cells were rinsed once with PBS buffer (purchased from Invitrogen) and then treated with cell dispersion solution (TrypLE™ Express Enzyme, purchased from Life technology) and collected. The detailed steps are as follows: the cells were rinsed once with PBS buffer, after counting, the cells were diluted to 2×10⁶ cells/ml with PBS buffer, blocked with 2% (w/w) fetal bovine serum and incubated on ice for 30 minutes. 200 μL of which per well was aliquoted into a 96-well FACS plate and centrifuged at 2000 rpm at 4° C., then each 100 μL of the lead antibodies obtained from Embodiment 1 and 2 were aliquoted into each well and incubated on ice for 1 hour. […] After centrifuged and rinsed 3 times with FACS buffer, cells were suspended with 200 μL of FACS buffer and the results were detected and analyzed by FACS (FACS Calibur, purchased from BD). It was shown in Tables 12-13 that the lead antibody could bind to human BLyS protein on the cell surface and the lead antibody could cross-react with cynomolgus BLyS. The data in the table is MFI, the average fluorescence intensity of the cell population.
# mouse BLyS protein = mouse BLyS protein (mouse, UniProt Q9WU72 69-309); test: cell-based or functional assay
# mouse BLyS protein, sequence (Q9WU72 69-309): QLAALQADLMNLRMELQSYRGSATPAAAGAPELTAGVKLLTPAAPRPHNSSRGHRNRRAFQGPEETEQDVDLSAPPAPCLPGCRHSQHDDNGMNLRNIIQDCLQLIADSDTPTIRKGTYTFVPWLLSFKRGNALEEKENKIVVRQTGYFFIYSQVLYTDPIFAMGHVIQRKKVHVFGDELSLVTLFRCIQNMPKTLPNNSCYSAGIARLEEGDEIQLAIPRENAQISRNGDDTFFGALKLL
# [2] = molecular target: T2, human BLyS (full length, arginine to …); test: flow cytometry, CHO-K1 hBLyS cells, antibody 0 nM
# Protocol: as §1
# [3] = molecular target: T1, cynomolgus BLyS (full length, arginine …); test: flow cytometry, CHO-K1 cynoBLyS cells, antibody 0.0213 nM
# Protocol: as §1
# [4] = molecular target: T2, human BLyS (full length, arginine to …); test: flow cytometry, CHO-K1 hBLyS cells, antibody 2.67 nM
# Protocol: as §1
# [5] = molecular target: T2, human BLyS (full length, arginine to …); test: flow cytometry, CHO-K1 hBLyS cells, antibody 0.00427 nM
# Protocol: as §1
# [6] = molecular target: T1, cynomolgus BLyS (full length, arginine …); test: flow cytometry, CHO-K1 cynoBLyS cells, antibody 66.7 nM
# Protocol: as §1
# [7] = molecular target: T1, cynomolgus BLyS (full length, arginine …); test: flow cytometry, CHO-K1 cynoBLyS cells, antibody 0.00427 nM
# Protocol: as §1
# [8] = molecular target: T1, cynomolgus BLyS (full length, arginine …); test: flow cytometry, CHO-K1 cynoBLyS cells, antibody 13.3 nM
# Protocol: as §1
# [9] = molecular target: T1, cynomolgus BLyS (full length, arginine …); test: flow cytometry, CHO-K1 cynoBLyS cells, antibody 0 nM
# Protocol: as §1
# [10] = molecular target: T2, human BLyS (full length, arginine to …); test: flow cytometry, CHO-K1 hBLyS cells, antibody 66.7 nM
# Protocol: as §1
# [11] = molecular target: T2, human BLyS (full length, arginine to …); test: flow cytometry, CHO-K1 hBLyS cells, antibody 13.3 nM
# Protocol: as §1
# [12] = molecular target: T1, cynomolgus BLyS (full length, arginine …); test: flow cytometry, CHO-K1 cynoBLyS cells, antibody 2.67 nM
# Protocol: as §1
# [13] = molecular target: T2, human BLyS (full length, arginine to …); test: flow cytometry, CHO-K1 hBLyS cells, antibody 0.0213 nM
# Protocol: as §1
# [14] = molecular target: T1, cynomolgus BLyS (full length, arginine …); test: flow cytometry, CHO-K1 cynoBLyS cells, antibody 0.534 nM
# Protocol: as §1
# [15] = molecular target: T2, human BLyS (full length, arginine to …); test: flow cytometry, CHO-K1 hBLyS cells, antibody 0.107 nM
# Protocol: as §1
# [16] = molecular target: T1, cynomolgus BLyS (full length, arginine …); test: flow cytometry, CHO-K1 cynoBLyS cells, antibody 0.107 nM
# Protocol: as §1
# [17] = molecular target: hBLyS-ECD (His-tagged extracellular domain of human BLyS protein, Ala134-Leu285) (human, UniProt Q9Y275 134-285); test: cell-based or functional assay
Binder,MFI [1],"mouse B lymphocyte proliferation (OD450 nm), antibody 0 nM (mouse BLyS protein)","mouse B lymphocyte proliferation (OD450 nm), antibody 0.000256 nM (mouse BLyS protein)","mouse B lymphocyte proliferation (OD450 nm), antibody 0.00128 nM (mouse BLyS protein)","mouse B lymphocyte proliferation (OD450 nm), antibody 0.0064 nM (mouse BLyS protein)","mouse B lymphocyte proliferation (OD450 nm), antibody 0.032 nM (mouse BLyS protein)","mouse B lymphocyte proliferation (OD450 nm), antibody 0.16 nM (mouse BLyS protein)","mouse B lymphocyte proliferation (OD450 nm), antibody 0.8 nM (mouse BLyS protein)","mouse B lymphocyte proliferation (OD450 nm), antibody 4 nM (mouse BLyS protein)","mouse B lymphocyte proliferation (OD450 nm), antibody 20 nM (mouse BLyS protein)","mouse B lymphocyte proliferation (OD450 nm), antibody 100 nM (mouse BLyS protein)",MFI [2],MFI [3],MFI [4],MFI [5],MFI [6],MFI [7],MFI [8],MFI [9],MFI [10],other results
"78C11D2D12 (antibody, V domains shown, Mouse hybridoma monoclonal antibody purified on Protein G) VH: QVQLQQSGAELVRPGTSVKISCKASGYAFTNYWLGWVKQRPGHGLEWIGDIYPGSGNTYYNEKFKGKATLTADKSSSTAYMQLSSLTSEDSAVFFCAAYLYAMDYWGQGTSVTVSS VL: QIVLTQSPAIMSASPGEKVTITCSASSSVSYMHWFQQKPGTSPKLWIYSASNLASGVPARFSGSGSGTSYSLTISRMEAEDAATYYCQQRGSYPFTFGSGTKLEIK",249 MFI,1990 OD450 nm,2210 OD450 nm,2380 OD450 nm,2240 OD450 nm,2390 OD450 nm,2410 OD450 nm,2510 OD450 nm,2340 OD450 nm,2470 OD450 nm,2480 OD450 nm,31.2 MFI,106 MFI,300 MFI,39.5 MFI,664 MFI,37.7 MFI,636 MFI,20.2 MFI,356 MFI,MFI [11]: 336 MFI; MFI [12]: 594 MFI; MFI [13]: 61.3 MFI; MFI [14]: 480 MFI; MFI [15]: 132 MFI; MFI [16]: 235 MFI
"89A2G5E7 (antibody, V domains shown, Mouse hybridoma monoclonal antibody purified on Protein G) VH: QVQLKESGPGLVAPSQSLSITCTVSGLSLNSHDISWIRQPPGKGLEWLGVIWSGGGTKYNSAFMSRLSISKDNSKSQVFLKMNSLHTDDTAIYYCVRTPSMITYSAMDYWGQGTSVTVSS VL: EIVLTQSPALMAASPGEKVTITCSVSSSISSRNLHWYQQKSQTSPKAWIHATSNLASGVPVRFSGSGSGTSYSLTISSMEAEDAATYYCQQWSSYPLTFGSGTKLEIK",192 MFI,2090 OD450 nm,2170 OD450 nm,2270 OD450 nm,2170 OD450 nm,2390 OD450 nm,2370 OD450 nm,2640 OD450 nm,2480 OD450 nm,2640 OD450 nm,2480 OD450 nm,31 MFI,53.6 MFI,374 MFI,37 MFI,884 MFI,32.1 MFI,829 MFI,21.2 MFI,431 MFI,"MFI [11]: 406 MFI; MFI [12]: 726 MFI; MFI [13]: 48.1 MFI; mouse B lymphocyte proliferation (OD450 nm), antibody 0 nM [17]: 3440 OD450 nm; mouse B lymphocyte proliferation (OD450 nm), antibody 0.000256 nM [17]: 3120 OD450 nm; mouse B lymphocyte proliferation (OD450 nm), antibody 0.00128 nM [17]: 3700 OD450 nm; mouse B lymphocyte proliferation (OD450 nm), antibody 0.0064 nM [17]: 3700 OD450 nm; mouse B lymphocyte proliferation (OD450 nm), antibody 0.032 nM [17]: 3360 OD450 nm; mouse B lymphocyte proliferation (OD450 nm), antibody 0.16 nM [17]: 3270 OD450 nm; mouse B lymphocyte proliferation (OD450 nm), antibody 0.8 nM [17]: 530 OD450 nm; mouse B lymphocyte proliferation (OD450 nm), antibody 4 nM [17]: 431 OD450 nm; mouse B lymphocyte proliferation (OD450 nm), antibody 20 nM [17]: 433 OD450 nm; mouse B lymphocyte proliferation (OD450 nm), antibody 100 nM [17]: 414 OD450 nm; MFI [14]: 355 MFI; MFI [15]: 92.1 MFI; MFI [16]: 125 MFI"
